The values that follow are results of earlier work, collected in publication PMC8531642.

For orientation: Kd means the free concentration of one partner at which half of the binding sites on the other are occupied at equilibrium, for simple one-to-one binding.

The target of one data set is LRG1 (Homo sapiens) (UniProt P02750). The experiment in a line: SPR.
A further data set has as its target Cytochrome c (UniProt P99999).

Chain of UniProt P02750 (P02750 36-347): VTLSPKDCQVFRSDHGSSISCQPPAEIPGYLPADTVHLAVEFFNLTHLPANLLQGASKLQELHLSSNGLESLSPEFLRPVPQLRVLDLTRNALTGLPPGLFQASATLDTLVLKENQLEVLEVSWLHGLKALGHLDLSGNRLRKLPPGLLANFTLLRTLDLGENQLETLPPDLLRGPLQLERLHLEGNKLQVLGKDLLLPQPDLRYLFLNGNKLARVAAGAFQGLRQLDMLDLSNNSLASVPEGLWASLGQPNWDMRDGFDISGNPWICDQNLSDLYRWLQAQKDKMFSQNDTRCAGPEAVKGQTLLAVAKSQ
Chain of Cytochrome c (P99999 2-105): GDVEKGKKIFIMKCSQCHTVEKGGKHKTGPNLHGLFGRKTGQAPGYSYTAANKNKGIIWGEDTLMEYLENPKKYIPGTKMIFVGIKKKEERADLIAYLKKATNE

Regarding Cytochrome c (from UniProt P99999), the dissociation constant (Kd) in the data set with LRG1 (Homo sapiens) was 0.000158 nM.

For TGF-β1 (from UniProt P01137), in the data set with LRG1 (Homo sapiens), the Kd was 2320 nM.

Regarding Apaf-1 (from UniProt O14727), in the data set with Cytochrome c, the Kd is 500 nM.
